The results in this text go back to patent publication US20250277030A1, “ANTI-NAPI2B ANTIBODIES AND METHODS OF USE” (Zymeworks BC Inc., priority 2022, published 2025).

A short description of series [1]: Stability (fragmentation) in PBS pH 7.4 at 37° C. by LC-MS. The format is physicochemical. The following applies: for apparent % desired proteoforms: PBS 37° C., 0.5 mg/ml. As to the method: Samples were removed after 0, 7 and 14 days and stored at −80° C. until characterization. For characterization, samples were thawed at room temperature and 50 μg were incubated with 5 μg of recombinant EndoS endoglycosidase for one hour at room temperature. An immunoprecipitation slurry was generated by a 45 min incubation of 95 μL/sample of magnetic Sepharose streptavidin-coated beads with 15 μg/sample of biotinylated goat anti-Human IgG Fc capture antibody, followed by 4 washes with PBS pH 7.4 with the aid of a DynaMag™-2 magnet (Invitrogen™).
After deglycosylation, plasma-incubated samples were incubated with 95 μL of the immunoprecipitation slurry for 1.5 hrs at room temperature. Then, the slurry underwent 6 washes with PBS pH 7.4 and 2 washes with LC-MS-grade water with the aid of a DynaMag™-2 magnet (Invitrogen™). A final wash with PBS pH 7.4 was performed before elution. Protein was eluted by incubating beads with 35 μL of LC-MS grade water with 20% acetonitrile and 0.1% formic acid for one hour at room temperature. PBS samples were not immunoprecipitated.
5 μL of the eluted sample were transferred to glass inserts in LC-MS vials. For LC-MS analysis, 1 μL of sample were injected into a Waters™ BioSuite Phenyl Column, 1000 Å, 10 μm, 4.6 mm×75 mm using a Waters™ ACQUITY™ UPLC I-Class HPLC system coupled to a Waters™ Synapt™ G2-Si HDMS with a column temperature of 70 C and a flow rate of 0.3 mL/min. Mobile phases consisted of A: LC-MS grade water with 0.1% v/v formic acid, 0.025 v/v trifluoroacetic acid and 10% v/v isopropyl alcohol in, and B: acetonitrile with 0.1% v/v formic acid and 10% v/v isopropyl alcohol. The column was pre-equilibrated in 10% mobile phase B before injection. Then, a 20 min 10 to 27% mobile phase B gradient was applied, followed by a 2 min 27 to 90% mobile phase B gradient and a column wash of 2 min at 99% mobile phase B.
The column was re-equilibrated to 10% mobile phase B for 2 minutes between runs. ESI was performed in positive mode with 3 kV of capillary voltage, 120 C source temperature, 100 V sampling cone voltage, source offset of 80 V, source gas flow of 0 ml/min, desolvation temperature 500 C, cone gas flow 0 μL/Hr, desolvation gas flow […], nebuliser gas flow 6.5 bar. Data format was continuum with analyser set in sensitivity mode, with a m/z range from 500 to 7000.
Peak integration, MS deconvolution and mass assignments were performed in Protein Metrics Byos® v4.0 using a deconvolution window of 60000-160000 Da with an m/z range of 1000-4000. For all time points, the highest intensity deconvoluted mass was assigned as the reference mass of v29456. […]

A short description of series [2]: Capillary isoelectric focusing (cIEF). The format is physicochemical. The following applies: main isoform; 0.5 mg/mL. The procedure: (§1) The isoelectric point was measured by capillary isoelectric focusing (cIEF), the propensity for self-aggregation was measured by Affinity-capture self-interaction nanoparticle spectroscopy (AC-SINS) and non-specific binding was measured by NS-ELISA, as described below.
cIEF was carried out using Maurice C. (ProteinSimple®) system, System Suitability Kit and Method Development Kit. System suitability standard, fluorescence calibration standard, cartridge and samples were prepared according to vendor's recommendations. The capillary was automatically calibrated with a fluorescence standard preconditioned with Maurice cIEF System Suitability Kit to ensure the capillary was functioning properly. The antibody samples were diluted to a concentration of 0.5 mg/mL in a final volume of 40 μL in Gibco™ Distilled Water, and mixed Maurice cIEF Method Development Kit Samples. The samples were then vortexed, centrifuged and the supernatant pipetted into individual wells of a 96-well plate. All electropherograms were detected with UV absorbance at 280 nm. All data analyses were performed using vendor software Compass for iCE (ProteinSimple®).

Series [3] concerns dsDNA. Briefly: NS-ELISA non-specific binding, dsDNA. The following applies: mAb at 100 nM. As to the method: as §1
NS-ELISA was used to measure the propensity of the antibodies to bind to a range of biomolecules to emulate the undesirable non-specific interactions to biological matrices in vivo as described below.
NS-ELISA was carried out in Corning®96-well EIA/RIA Easy Wash™ Clear Flat Bottom Polystyrene High Bind Microplate coated overnight at 4° C. with 50 μL of Heparin (Sigma, H3149) diluted with 50 mM sodium carbonate pH 9.6 to a final concentration of 250 μg/mL. The plate was incubated for 2 days at room temperature, wells that were coated with heparin were not covered to allow air dry. […] Reactions were stopped after approximately 10 minutes by adding 100 μL of 1 M HCl to each well, and absorbance was read at 450 nm. Binding scores were calculated as the ratio of the ELISA signal of the antibody (antibody-treated) to the signal of a well containing buffer instead of the primary antibody (untreated). The cutoffs considered for each binding molecule (ssDNA, KLH, insulin, dsDNA and heparin) were internally calculated, based on the average of Zymeworks Inc. produced antibodies and antibodies benchmarks published in the literature.
On the technique in general: In an ELISA, binding on a coated surface is turned into a signal by an enzyme label.

B1: v29456: humanized anti-NaPi2b IgG1/kappa antibody H1L2; VH SEQ ID NO:24, VL SEQ ID NO:29 (antibody, V domains shown)
VH: QVQLVQSGAEVKKPGASVKVSCKASGFTFTSYNVHWVRQAPGQGLEWMGAISPGNGDLSYAQKFQGRVTMTRDTSTSTVYMELSSLRSEDTAVYYCARGRTGMGAVDYWGQGTLVTVSS
VL: DVQMTQSPSSLSASVGDRVTITCRASQDVYSYLNWYQQKPGKAVKLLIYYTSRLQSGVPSRFSGSGSGTDYTLTISSLQPEDFATYYCQQYNIFPWTFGQGTKLEIK
modifications: v29452, v29456, v29460 VH (H1); v29453, v29454, v29455, v29456 VL (L2)
Consider B1, for which the “fragmentation in PBS pH 7.4, in words” value in series [1] (37° C., 7 and 14 days) was “no evidence of fragmentation”. The figures for the “apparent % desired proteoforms” value in series [1] (0 days), in series [1] (7 days) and in series [1] (14 days) were 99.8%, 99.2% and 99.6%, respectively. In series [2], the “cIEF pI” value worked out at 8.53. Besides, in series [3], the “NS-ELISA binding score (ratio of signal between antibody-treated and untreated), dsDNA” value came to 1.07.
